Source: publication PMC6614801

How the values were obtained:
[1] = target: N-terminally His6-tagged NusA^AR2 (E. coli) (UniProt P0AFF6); test: SPR; Biacore, Sensor Chip NTA, 20°C; N-terminally His6-tagged NusA^AR2 immobilised; single cycle kinetics with SuhB variants at 25, 50, 100, 150 and 200 nM; 20 mM HEPES–NaOH pH 7.5, 50 mM NaCl, 1 mM DTT
[2] = tested on: SuhB (Escherichia coli DH5α); test: double filter binding; conditions: Hill slope fit, 50 nM RNA, Filter binding: 20 mM HEPES-NaOH pH 7.5, 50 mM NaCl, 1 mM DTT, room temperature, 20 min, SEC buffer not in material

Substance: SuhB^KL251/254AA (from UniProt P0ADG4 1-267) (natural protein)
- Kd [1]: 141 µM

Substance: rrnGnut RNA
- Kd [2]: 3.2 µM
